PMC9482650, “Quantitative fragmentomics allow affinity mapping of interactomes” (Nature Communications, 2022)

T1: TJP3_3, O95049
T1 sequence (O95049 375-456, limits assumed, looked up): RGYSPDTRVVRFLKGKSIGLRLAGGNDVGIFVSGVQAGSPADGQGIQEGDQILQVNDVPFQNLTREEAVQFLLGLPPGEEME

T2: PCLO, Q9Y6V0
T2 sequence (Q9Y6V0 4491-4600, limits assumed, looked up): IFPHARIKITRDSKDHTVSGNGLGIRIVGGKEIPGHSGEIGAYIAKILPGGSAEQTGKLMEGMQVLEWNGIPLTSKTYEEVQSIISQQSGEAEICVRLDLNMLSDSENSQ

T3: NHERF3_3, Q5T2W1
T3 sequence (Q5T2W1 238-333, limits assumed, looked up): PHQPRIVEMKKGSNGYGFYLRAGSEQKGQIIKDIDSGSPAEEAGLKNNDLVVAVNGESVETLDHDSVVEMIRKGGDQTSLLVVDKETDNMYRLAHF

T4: DFNB31_2, Q9P202
T4 sequence (Q9P202 274-371, limits assumed, looked up): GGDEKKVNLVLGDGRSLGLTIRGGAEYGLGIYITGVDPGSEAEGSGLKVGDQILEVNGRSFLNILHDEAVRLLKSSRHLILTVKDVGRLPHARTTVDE

T5: LNX2_2, Q8N448
T5 sequence (Q8N448 334-432, limits assumed, looked up): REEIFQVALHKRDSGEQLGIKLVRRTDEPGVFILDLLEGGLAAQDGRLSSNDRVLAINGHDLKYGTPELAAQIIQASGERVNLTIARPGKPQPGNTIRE

T6: MPP2, Q14168
T6 sequence (Q14168 180-250, limits assumed, looked up): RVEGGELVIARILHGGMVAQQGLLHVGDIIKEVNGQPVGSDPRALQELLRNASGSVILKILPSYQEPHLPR

T7: SHANK1, Q9Y566
T7 sequence (Q9Y566 658-767, limits assumed, looked up): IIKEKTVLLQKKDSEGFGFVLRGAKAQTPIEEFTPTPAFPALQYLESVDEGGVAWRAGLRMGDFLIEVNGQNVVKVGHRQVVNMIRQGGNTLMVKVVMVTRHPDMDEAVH

T8: GRIP1_5, Q9Y3R0
T8 sequence (Q9Y3R0 568-668, limits assumed, looked up): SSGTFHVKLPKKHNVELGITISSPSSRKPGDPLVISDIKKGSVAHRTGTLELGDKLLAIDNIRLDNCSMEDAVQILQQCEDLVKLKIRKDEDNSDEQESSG

T9: NHERF3_1, Q5T2W1
T9 sequence (Q5T2W1 4-100, limits assumed, looked up): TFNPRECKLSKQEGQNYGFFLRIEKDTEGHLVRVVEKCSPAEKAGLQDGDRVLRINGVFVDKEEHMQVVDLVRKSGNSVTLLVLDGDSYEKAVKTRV

T10: DLG3_3, Q92796
T10 sequence (Q92796 374-475, limits assumed, looked up): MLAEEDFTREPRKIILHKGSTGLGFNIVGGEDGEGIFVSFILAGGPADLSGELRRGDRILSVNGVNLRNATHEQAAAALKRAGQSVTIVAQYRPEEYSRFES

T11: TIAM2, Q8IVF5
T11 sequence (Q8IVF5 885-986, limits assumed, looked up): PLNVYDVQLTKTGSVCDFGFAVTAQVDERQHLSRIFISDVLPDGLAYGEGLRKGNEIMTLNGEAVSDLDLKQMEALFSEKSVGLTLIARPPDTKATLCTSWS


Experiments:
Experiment in all cases: holdup assay
Parameters in all cases: key: below the threshold = too weak to quantify, mostly under pKd 3.1 to 4
Details in all cases: plain residues with an end cap or a label only (N-terminal biotin on a linker: ado-ado)
TJP3_3, O95049 = molecular target: T1, TJP3_3, O95049
MAGI2_6, Q86UL8 = molecular target: MAGI2_6, Q86UL8
DLG4_1, P78352 = molecular target: DLG4_1, P78352
DLG1_3, Q12959 = molecular target: DLG1_3, Q12959
PCLO, Q9Y6V0 = molecular target: T2, PCLO, Q9Y6V0
GRID2IP_1, A4D2P6 = molecular target: GRID2IP_1, A4D2P6
NHERF3_3, Q5T2W1 = molecular target: T3, NHERF3_3, Q5T2W1
NOS1, P29475 = molecular target: NOS1, P29475
IL16_1, Q14005 = molecular target: IL16_1, Q14005
DFNB31_2, Q9P202 = molecular target: T4, DFNB31_2, Q9P202
LNX2_2, Q8N448 = molecular target: T5, LNX2_2, Q8N448
NHERF4_1, Q86UT5-2 = molecular target: NHERF4_1, Q86UT5-2
Inadl_8, Q8NI35 = molecular target: Inadl_8, Q8NI35
PTPN3, P26045 = molecular target: PTPN3, P26045
PICK1, Q9NRD5 = molecular target: PICK1, Q9NRD5
DLG4_3, P78352 = molecular target: DLG4_3, P78352
MPP2, Q14168 = molecular target: T6, MPP2, Q14168
Inadl_6, Q8NI35 = molecular target: Inadl_6, Q8NI35
SHANK1, Q9Y566 = molecular target: T7, SHANK1, Q9Y566
GRIP1_5, Q9Y3R0 = molecular target: T8, GRIP1_5, Q9Y3R0
NHERF3_1, Q5T2W1 = molecular target: T9, NHERF3_1, Q5T2W1
GORASP1, Q9BQQ3 = molecular target: GORASP1, Q9BQQ3
MAGI2_2, Q86UL8 = molecular target: MAGI2_2, Q86UL8
DLG3_3, Q92796 = molecular target: T10, DLG3_3, Q92796
TIAM2, Q8IVF5 = molecular target: T11, TIAM2, Q8IVF5
TJP1_3, Q07157 = molecular target: TJP1_3, Q07157
FRMPD2_2, Q68DX3 = molecular target: FRMPD2_2, Q68DX3
Chain of FRMPD2_2, Q68DX3 (Q68DX3 944-1038): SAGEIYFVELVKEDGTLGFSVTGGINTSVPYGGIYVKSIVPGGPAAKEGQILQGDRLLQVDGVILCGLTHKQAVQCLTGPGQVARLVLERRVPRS

Chain of DLG4_1, P78352 (P78352 62-152): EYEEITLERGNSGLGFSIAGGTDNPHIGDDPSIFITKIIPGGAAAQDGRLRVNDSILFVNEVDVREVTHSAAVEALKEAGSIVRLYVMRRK
Chain of DLG1_3, Q12959 (Q12959 457-571): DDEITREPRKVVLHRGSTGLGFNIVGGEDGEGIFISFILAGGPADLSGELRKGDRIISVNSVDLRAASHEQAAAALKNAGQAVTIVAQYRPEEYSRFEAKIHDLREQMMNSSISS
Chain of PTPN3, P26045 (P26045 505-587): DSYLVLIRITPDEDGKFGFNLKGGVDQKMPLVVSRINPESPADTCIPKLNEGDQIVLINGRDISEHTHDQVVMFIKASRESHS
Chain of DLG4_3, P78352 (P78352 306-403): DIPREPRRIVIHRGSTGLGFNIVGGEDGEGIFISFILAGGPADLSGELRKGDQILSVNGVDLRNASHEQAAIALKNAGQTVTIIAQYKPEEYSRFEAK
Chain of NOS1, P29475 (P29475 9-101): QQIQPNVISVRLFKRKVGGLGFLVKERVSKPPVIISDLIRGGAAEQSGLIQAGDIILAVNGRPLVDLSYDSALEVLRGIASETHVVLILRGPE
Chain of PICK1, Q9NRD5 (Q9NRD5 17-115): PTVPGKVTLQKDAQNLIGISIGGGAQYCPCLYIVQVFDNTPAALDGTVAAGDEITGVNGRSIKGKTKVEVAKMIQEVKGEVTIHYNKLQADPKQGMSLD
Chain of GRID2IP_1, A4D2P6 (A4D2P6 1-87): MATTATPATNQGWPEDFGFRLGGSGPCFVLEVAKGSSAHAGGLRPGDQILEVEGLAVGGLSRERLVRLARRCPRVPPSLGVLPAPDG
Chain of Inadl_8, Q8NI35 (Q8NI35 1425-1530): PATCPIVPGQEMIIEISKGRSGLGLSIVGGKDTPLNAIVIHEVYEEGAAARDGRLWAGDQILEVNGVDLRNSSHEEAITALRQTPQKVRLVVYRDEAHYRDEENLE
Chain of MAGI2_2, Q86UL8 (Q86UL8 410-522): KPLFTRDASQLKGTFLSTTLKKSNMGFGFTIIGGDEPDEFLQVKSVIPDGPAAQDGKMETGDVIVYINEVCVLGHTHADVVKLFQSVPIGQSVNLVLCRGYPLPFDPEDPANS
Chain of MAGI2_6, Q86UL8 (Q86UL8 1141-1229): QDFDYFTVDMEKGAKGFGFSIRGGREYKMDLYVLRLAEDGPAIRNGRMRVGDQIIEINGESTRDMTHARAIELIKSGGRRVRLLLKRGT
Chain of GORASP1, Q9BQQ3 (Q9BQQ3 1-208): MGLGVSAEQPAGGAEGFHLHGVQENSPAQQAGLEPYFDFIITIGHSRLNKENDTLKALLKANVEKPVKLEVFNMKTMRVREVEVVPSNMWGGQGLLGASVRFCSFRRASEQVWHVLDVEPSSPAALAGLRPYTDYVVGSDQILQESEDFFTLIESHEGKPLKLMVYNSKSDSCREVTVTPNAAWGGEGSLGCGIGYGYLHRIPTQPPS
Chain of TJP1_3, Q07157 (Q07157 416-512): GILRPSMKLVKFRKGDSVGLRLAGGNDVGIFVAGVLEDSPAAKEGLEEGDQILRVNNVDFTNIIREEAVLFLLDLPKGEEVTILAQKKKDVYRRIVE
Chain of Inadl_6, Q8NI35 (Q8NI35 1058-1167): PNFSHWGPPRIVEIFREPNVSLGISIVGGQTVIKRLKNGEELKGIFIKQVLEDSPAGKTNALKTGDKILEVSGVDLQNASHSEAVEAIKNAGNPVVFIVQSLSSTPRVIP
Chain of NHERF4_1, Q86UT5-2 (Q86UT5 other isoform, or with tags, fused parts or gaps): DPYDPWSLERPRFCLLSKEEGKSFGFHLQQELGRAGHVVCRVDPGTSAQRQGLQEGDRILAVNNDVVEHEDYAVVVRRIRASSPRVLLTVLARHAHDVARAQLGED
Chain of IL16_1, Q14005 (Q14005 210-306): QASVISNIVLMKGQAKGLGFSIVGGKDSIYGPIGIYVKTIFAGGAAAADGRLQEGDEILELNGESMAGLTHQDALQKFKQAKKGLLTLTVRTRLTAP

Binder	pKd (TJP3_3, O95049)	pKd (MAGI2_6, Q86UL8)	pKd (DLG4_1, P78352)	pKd (DLG1_3, Q12959)	pKd (PCLO, Q9Y6V0)	pKd (GRID2IP_1, A4D2P6)	pKd (NHERF3_3, Q5T2W1)	pKd (NOS1, P29475)	pKd (IL16_1, Q14005)	pKd (DFNB31_2, Q9P202)	pKd (LNX2_2, Q8N448)	pKd (NHERF4_1, Q86UT5-2)	pKd (Inadl_8, Q8NI35)	pKd (PTPN3, P26045)	pKd (PICK1, Q9NRD5)	pKd (DLG4_3, P78352)	pKd (MPP2, Q14168)	pKd (Inadl_6, Q8NI35)	pKd (SHANK1, Q9Y566)	pKd (GRIP1_5, Q9Y3R0)	further results
GSGAVEMESV [AQP6, Q13520]	below the threshold	3.51	below the threshold	below the threshold	below the threshold	below the threshold	below the threshold	below the threshold	below the threshold	below the threshold	3.49	below the threshold	below the threshold	below the threshold	below the threshold	below the threshold	below the threshold	below the threshold	below the threshold	below the threshold	pKd (NHERF3_1, Q5T2W1): below the threshold; pKd (GORASP1, Q9BQQ3): below the threshold; pKd (MAGI2_2, Q86UL8): below the threshold; pKd (DLG3_3, Q92796): below the threshold; pKd (TIAM2, Q8IVF5): below the threshold; pKd (TJP1_3, Q07157): below the threshold; pKd (FRMPD2_2, Q68DX3): below the threshold
CLREWCDAFL [BANF1, O75531]	3.86	4.36	below the threshold	below the threshold	below the threshold	below the threshold	below the threshold	below the threshold	below the threshold	below the threshold	below the threshold	4.13	below the threshold	4.47	below the threshold	below the threshold	below the threshold	4.32	4.14	below the threshold	pKd (NHERF3_1, Q5T2W1): 4.78; pKd (GORASP1, Q9BQQ3): 3.82; pKd (MAGI2_2, Q86UL8): below the threshold; pKd (DLG3_3, Q92796): below the threshold; pKd (TIAM2, Q8IVF5): 4.05; pKd (TJP1_3, Q07157): below the threshold; pKd (FRMPD2_2, Q68DX3): below the threshold
EKKTLIGIKL [GOT1L1, Q8NHS2]	below the threshold	below the threshold	below the threshold	below the threshold	below the threshold	below the threshold	below the threshold	3.56	below the threshold	below the threshold	below the threshold	3.81	below the threshold	below the threshold	4.14	below the threshold	below the threshold	below the threshold	below the threshold	below the threshold	pKd (NHERF3_1, Q5T2W1): 4.78; pKd (GORASP1, Q9BQQ3): below the threshold; pKd (MAGI2_2, Q86UL8): 3.52; pKd (DLG3_3, Q92796): below the threshold; pKd (TIAM2, Q8IVF5): 3.57; pKd (TJP1_3, Q07157): below the threshold; pKd (FRMPD2_2, Q68DX3): below the threshold

More lines, main results first:

pKd (TJP3_3, O95049)	pKd (MAGI2_6, Q86UL8)	pKd (DLG4_1, P78352)	pKd (DLG1_3, Q12959)	pKd (PCLO, Q9Y6V0)	pKd (GRID2IP_1, A4D2P6)	pKd (NHERF3_3, Q5T2W1)	pKd (NOS1, P29475)	pKd (IL16_1, Q14005)	pKd (DFNB31_2, Q9P202)	pKd (LNX2_2, Q8N448)	pKd (NHERF4_1, Q86UT5-2)	pKd (Inadl_8, Q8NI35)	pKd (PTPN3, P26045)	pKd (PICK1, Q9NRD5)	pKd (DLG4_3, P78352)	pKd (MPP2, Q14168)	pKd (Inadl_6, Q8NI35)	pKd (SHANK1, Q9Y566)	pKd (GRIP1_5, Q9Y3R0)	Binder	further results
below the threshold	below the threshold	below the threshold	below the threshold	below the threshold	below the threshold	below the threshold	below the threshold	below the threshold	below the threshold	below the threshold	3.96	below the threshold	4.16	below the threshold	below the threshold	below the threshold	below the threshold	4.09	below the threshold	SARSRLSSNL [HCN2, Q9UL51]	pKd (NHERF3_1, Q5T2W1): 4.72; pKd (GORASP1, Q9BQQ3): below the threshold; pKd (MAGI2_2, Q86UL8): 3.71; pKd (DLG3_3, Q92796): below the threshold; pKd (TIAM2, Q8IVF5): below the threshold; pKd (TJP1_3, Q07157): below the threshold; pKd (FRMPD2_2, Q68DX3): below the threshold
below the threshold	below the threshold	below the threshold	below the threshold	below the threshold	below the threshold	below the threshold	below the threshold	below the threshold	below the threshold	below the threshold	3.76	below the threshold	3.91	below the threshold	below the threshold	below the threshold	below the threshold	3.49	below the threshold	IKAIVDLTGL [TRAF2, Q12933]	pKd (NHERF3_1, Q5T2W1): 4.56; pKd (GORASP1, Q9BQQ3): below the threshold; pKd (MAGI2_2, Q86UL8): below the threshold; pKd (DLG3_3, Q92796): below the threshold; pKd (TIAM2, Q8IVF5): below the threshold; pKd (TJP1_3, Q07157): below the threshold; pKd (FRMPD2_2, Q68DX3): below the threshold
